Data as given in article PMC9701752.

B1: PTPRJ transmembrane domain construct for the AraTM assay, wild type (five extracellular residues, putative TMD, 20 cytoplasmic juxtamembrane residues) [human] / FLT3 transmembrane domain construct for the AraTM assay (five … (parent)
chain 1: QDPGVICGAVFGCIFGALVIVTVGGFIFWRKKRKDAKNNEVSFSQIKP
chain 2: QDNISFYATIGVCLLFIVVLTLLICHKYKKQFRYESQLQMVQVTG

Variants of: B1
Experiment: DN-AraTM assay
Conditions: with FLT3 transmembrane domain construct for the AraTM assay (five extracellular residues, putative TMD, 20 cytoplasmic juxtamembrane residues); FLT3-AraC co-expressed with PTPRJ TMD-AraC* competitor; n=9; parent: 0.8; read off a plot

| Variant | response (normalized GFP signal (FLT3 alone = 1)) |
| --- | --- |
| chain 1 QDPGVICLAVFGCIFGALVIVTVGGFIFWRKKRKDAKNNEVSFSQIKP [chain 1 G8L] | 0.5 |
| chain 1 QDPGVICGAVFGCIFLALVIVTVGGFIFWRKKRKDAKNNEVSFSQIKP [chain 1 G16L] | 0.55 |
| chain 1 QDPGVICGAVFLCIFGALVIVTVGGFIFWRKKRKDAKNNEVSFSQIKP [chain 1 G12L] | 0.56 |
